Test [1] addresses T1, human Protein S (UniProt P07225 42-676).
T1 chain: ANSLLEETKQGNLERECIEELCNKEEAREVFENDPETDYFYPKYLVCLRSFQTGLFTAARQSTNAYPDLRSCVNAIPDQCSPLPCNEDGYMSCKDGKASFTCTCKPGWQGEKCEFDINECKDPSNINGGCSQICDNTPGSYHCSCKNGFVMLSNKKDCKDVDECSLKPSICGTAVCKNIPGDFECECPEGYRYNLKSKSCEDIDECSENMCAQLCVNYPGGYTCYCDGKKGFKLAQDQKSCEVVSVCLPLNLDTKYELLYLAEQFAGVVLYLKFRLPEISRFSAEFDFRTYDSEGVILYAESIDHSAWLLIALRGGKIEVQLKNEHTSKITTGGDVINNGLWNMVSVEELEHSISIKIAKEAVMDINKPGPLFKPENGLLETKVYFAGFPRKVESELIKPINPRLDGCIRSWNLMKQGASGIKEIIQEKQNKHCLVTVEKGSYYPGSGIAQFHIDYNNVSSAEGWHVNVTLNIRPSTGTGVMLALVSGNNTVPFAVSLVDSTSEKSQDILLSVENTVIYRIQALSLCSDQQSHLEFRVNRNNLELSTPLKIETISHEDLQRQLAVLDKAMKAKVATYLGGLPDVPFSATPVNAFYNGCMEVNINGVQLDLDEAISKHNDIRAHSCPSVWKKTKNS
Kind of test: LANCE competition. The gist of the method: (§1)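 A homogeneous time-resolved FRET (LANCE) competition format paired europium-labelled Protein S and ULight-labelled streptavidin with a biotinylated tracer peptide, against which unlabelled test peptide was titrated three-fold. With final concentrations of 10 nM Protein S, 100 nM streptavidin and 300 nM tracer in 50 µl, or 2 nM Protein S and 60 nM tracer when a Tecan F500 was used, samples stood 1 hour at room temperature. Emission was read at 665 nm with excitation at 340 nm. Non-linear regression of these signals gave the IC50.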
On the technique in general: Time-resolved FRET reads energy transfer from a long-lived donor to a nearby acceptor.

In test [2] the target is T1, human Protein S. Kind of test: LANCE competition. The gist of the method:
as §1

Like-named read-outs stand apart in the source and are kept apart here. Positions of bridges follow the written chain, without caps; N, C: chain ends.

As to Ac-SATVSAGWYDYNKDVYFEFE-NH2 [JBS3273], the IC50 – broadly, the point on the concentration scale where inhibition reaches its midpoint – in the test with human Protein S [1] came out at 2.3 nM. The same measure, in the same setting: the same measure for Ac-EYYVSAGWYDYNNDTYNEFW-NH2 [JBS3243]: 1.3 nM; for MEYYVSAGWYDYNTDTYYEFE [JBS3224]: 1.3 nM; for Ac-EYYVSAGWYDYNADTYYEFE-NH2 [JBS3234]: 2.7 nM.

B1: JBS3162 (peptide)
chain: Ac-TCLVSAGWYDCYNFDHYREFT-NH2
modifications: disulfide 2-11
SMILES: CC(=O)N[C@H](C(=O)N[C@H]1CSSC[C@@H](C(=O)N[C@@H](Cc2ccc(O)cc2)C(=O)N[C@@H](CC(N)=O)C(=O)N[C@@H](Cc2ccccc2)C(=O)N[C@@H](CC(=O)O)C(=O)N[C@@H](Cc2c[nH]cn2)C(=O)N[C@@H](Cc2ccc(O)cc2)C(=O)N[C@@H](CCCNC(=N)N)C(=O)N[C@@H](CCC(=O)O)C(=O)N[C@@H](Cc2ccccc2)C(=O)N[C@H](C(N)=O)[C@@H](C)O)NC(=O)[C@H](CC(=O)O)NC(=O)[C@H](Cc2ccc(O)cc2)NC(=O)[C@H](Cc2c[nH]c3ccccc23)NC(=O)CNC(=O)[C@H](C)NC(=O)[C@H](CO)NC(=O)[C@H](C(C)C)NC(=O)[C@H](CC(C)C)NC1=O)[C@@H](C)O
In the test with human Protein S [1], B1 gave an IC50 of 1510 nM.

Molecule Ac-SGLVSAGWYDYNFDSYREFT-NH2 [JBS3185] had an IC50 with human Protein S [1] of 7.2 nM. The same measure, in the same setting: as for Ac-EYYVSAGWYDYNNDIYLEFE-NH2 [JBS3241], the figure is 1.2 nM.

In turn, Ac-EYYVSAGWYNYEEDSYYEFE-NH2 [JBS3247] yielded an IC50 with human Protein S [1] of 1.9 nM.

On to Ac-EYYVSAGWYDTNNDRYYEFI-NH2 [JBS3239], for which the IC50 in the test with human Protein S [1] came out at 2 nM.

B2: JBS3168 (peptide)
chain: Ac-TGLCVSAGWYDYNCDHYREFT-NH2
modifications: disulfide 4-14
SMILES: CC(=O)N[C@H](C(=O)NCC(=O)N[C@@H](CC(C)C)C(=O)N[C@H]1CSSC[C@@H](C(=O)N[C@@H](CC(=O)O)C(=O)N[C@@H](Cc2c[nH]cn2)C(=O)N[C@@H](Cc2ccc(O)cc2)C(=O)N[C@@H](CCCNC(=N)N)C(=O)N[C@@H](CCC(=O)O)C(=O)N[C@@H](Cc2ccccc2)C(=O)N[C@H](C(N)=O)[C@@H](C)O)NC(=O)[C@H](CC(N)=O)NC(=O)[C@H](Cc2ccc(O)cc2)NC(=O)[C@H](CC(=O)O)NC(=O)[C@H](Cc2ccc(O)cc2)NC(=O)[C@H](Cc2c[nH]c3ccccc23)NC(=O)CNC(=O)[C@H](C)NC(=O)[C@H](CO)NC(=O)[C@H](C(C)C)NC1=O)[C@@H](C)O
On to B2, for which, in the test with human Protein S [1], the IC50 amounted to 604 nM.

For the molecule Ac-EYYVSAGWYDYNNDIYYEFI-NH2 [JBS3240], the IC50 in the test with human Protein S [1] was 2 nM. Still for that read-out and setting: the same measure for Ac-QYYVVAGWYDYNTDSYYEFD-NH2 [JBS3251]: 0.6 nM; for Ac-TGLVSAGWYDYNFDHYYEFT-NH2 [JBS2941]: 1.4 nM. On the same count and under the same terms, the same measure for Ac-EYYVSAGWYDYNDDKYYEFE-NH2 [JBS3217]: 1.3 nM. Still for that read-out and setting: as for Ac-EYYVSAGWHDYNKDIYFEFF-NH2 [JBS3242], the figure is 67.8 nM.

In the test with human Protein S [1], Ac-TGLVSAGWYDYNFDHYREF-NH2 [JBS3181] showed an IC50 of 9.5 nM.

In the test with human Protein S [1], Ac-YGLVSAGWYDYNFDHYREFT-NH2 [JBS2928] came in with an IC50 of 3.7 nM.

In turn, Ac-EYYVSAGWYDYNTDKYYEFI-NH2 [JBS3237] registered an IC50 with human Protein S [1] of 1.5 nM. In the test with human Protein S [2], Ac-TGLVSAGWYDYNFDTYREFT-NH2 [JBS2885] returned a concentration for half-maximal inhibition (IC50) of 4.4 nM. This lies in the single-digit nanomolar range. In the case of CGLVSAGWYDCYNFDHYREFT [JBS3157], the IC50 in the test with human Protein S [1] is 812 nM.

Molecule TGCLVSAGWYDYNCDHYREFT [JBS3169] yielded an IC50 with human Protein S [1] of 544 nM. This IC50 and that of the molecule before are within 1.5-fold of each other. Regarding Ac-EYYVSAGWYDYNSDTYFEFI-NH2 [JBS3245], in the test with human Protein S [1], the IC50 was 2 nM.

B3: JBS3160 (peptide)
chain: Ac-CGLVSAGWYDYNFCDHYREFT-NH2
modifications: disulfide 1-14
SMILES: CC(=O)N[C@H]1CSSC[C@@H](C(=O)N[C@@H](CC(=O)O)C(=O)N[C@@H](Cc2c[nH]cn2)C(=O)N[C@@H](Cc2ccc(O)cc2)C(=O)N[C@@H](CCCNC(=N)N)C(=O)N[C@@H](CCC(=O)O)C(=O)N[C@@H](Cc2ccccc2)C(=O)N[C@H](C(N)=O)[C@@H](C)O)NC(=O)[C@H](Cc2ccccc2)NC(=O)[C@H](CC(N)=O)NC(=O)[C@H](Cc2ccc(O)cc2)NC(=O)[C@H](CC(=O)O)NC(=O)[C@H](Cc2ccc(O)cc2)NC(=O)[C@H](Cc2c[nH]c3ccccc23)NC(=O)CNC(=O)[C@H](C)NC(=O)[C@H](CO)NC(=O)[C@H](C(C)C)NC(=O)[C@H](CC(C)C)NC(=O)CNC1=O
Consider B3, for which the IC50 in the test with human Protein S [1] was 981 nM.

B4: JBS3171 (peptide)
chain: Ac-TCLVSAGWYDYNCDHYREFT-NH2
modifications: disulfide 2-13
SMILES: CC(=O)N[C@H](C(=O)N[C@H]1CSSC[C@@H](C(=O)N[C@@H](CC(=O)O)C(=O)N[C@@H](Cc2c[nH]cn2)C(=O)N[C@@H](Cc2ccc(O)cc2)C(=O)N[C@@H](CCCNC(=N)N)C(=O)N[C@@H](CCC(=O)O)C(=O)N[C@@H](Cc2ccccc2)C(=O)N[C@H](C(N)=O)[C@@H](C)O)NC(=O)[C@H](CC(N)=O)NC(=O)[C@H](Cc2ccc(O)cc2)NC(=O)[C@H](CC(=O)O)NC(=O)[C@H](Cc2ccc(O)cc2)NC(=O)[C@H](Cc2c[nH]c3ccccc23)NC(=O)CNC(=O)[C@H](C)NC(=O)[C@H](CO)NC(=O)[C@H](C(C)C)NC(=O)[C@H](CC(C)C)NC1=O)[C@@H](C)O
B4 came in with a concentration for half-maximal inhibition (IC50) with human Protein S [1] of 336 nM. As to Ac-EYYVSAGWYDYEHDTYLEFY-NH2 [JBS3246], the IC50 in the test with human Protein S [1] was 2.2 nM. On the same count and under the same terms, the same measure for CGLVSAGWYDYNFDCYREFT [JBS3172]: 55.2 nM; for Ac-TCLVSAGWYDYNFDCYREFT-NH2 (disulfide 2-15 (inferred); not fully specified) [JBS3173]: 208 nM. Turning to Ac-TGLVEAGWYDYNFDHYREFT-NH2 [JBS2740], in the test with human Protein S [2], the IC50 came to 16.4 nM. Consider Ac-DDEVSIGWYDYNTDEYVEFW-NH2 [JBS3295], for which the IC50 in the test with human Protein S [1] came out at 14.6 nM. That is a double-digit nanomolar value. Same read-out and setting: as for Ac-GLVSAGWYDYNFDHYREF-NH2 [JBS3182], the figure is 20.9 nM.

With Ac-EYTVSAGWYDYNKDTYEEFK-NH2 [JBS3220], the IC50 with human Protein S [1] was found to be 3.5 nM. On the same count and under the same terms, the same measure for Ac-EYYVSAGWYDYNTDRYYEFY-NH2 [JBS3238]: 1.3 nM.

CGLVSAGWYDYNCDHYREFT [JBS3170] gave an IC50 with human Protein S [1] of 206 nM.

In the test with human Protein S [1], MEYYVSAGWYDYNTDTYYEFE [JBS3215] registered an IC50 of 0.8 nM. On the same count and under the same terms, the same measure for Ac-TYYVSAGWYGYNNDRYYEFY-NH2 [JBS3250]: 22.7 nM.

Molecule Ac-GLVSAGWYDYNFDHYREFT-NH2 [JBS3180] showed an IC50 in the test with human Protein S [1] of 9 nM.

Source of the values: patent US20150246947A1 (BAXALTA, published 2015).
